# Measured values: patent publication US20170082621A1
# Assays:
# [1] = molecular target: Helicobacter pylori neutrophil-activating protein (HP-NAP) of H. pylori 26695 (Helicobacter pylori strain 26695) (UniProt P43313); assay: cell-based or functional assay
# [2] = molecular target: HP-NAPE97GY101H (Helicobacter pylori strain 26695) (UniProt P43313); assay: recombinant HP-NAP-based ELISA, antibody X at 600 ng/ml
# [3] = molecular target: HP-NAPY101H (Helicobacter pylori strain 26695) (UniProt P43313); assay: as above
# [4] = molecular target: HP-NAPE97GY101H (Helicobacter pylori strain 26695) (UniProt P43313); assay: western blot of E. coli lysates, normalised by Ponceau S to wild-type HP-NAP
# [5] = molecular target: HP-NAPY101H (Helicobacter pylori strain 26695) (UniProt P43313); assay: as above
substance,measurement,setting,value
"antibody X, commercial IgG/M2 monoclonal antibody (Sigma, F-3165)",inhibition of ROS production upon two hours of HP-NAP stimulation (H2DCF-DA fluorescence),[1],93.2%
same,ELISA signal compared to wild-type HP-NAP,[2],33%
same,ELISA signal compared to wild-type HP-NAP,[3],60%
same,western-blot signal intensity compared to wild-type HP-NAP,[4],9%
same,western-blot signal intensity compared to wild-type HP-NAP,[5],11%
